The results in this text go back to patent publication US20100098683A1 (Dana-Farber, published 2010).

This assay deals with T1, hFc-MUC1-C/ED (MUC1-C extracellular domain fused to human Fc) (human, UniProt P15941 1098-1155, secreted from CHO-K1 cells; the filing reports N-linked glycosylation of MUC1-C at Asn-36).
T1 construct: Purified on protein A; also called hFc-MUC1-C extracellular domain; not shown: human Fc fragment (hFc) amplified from the CD5-IgG1 plasmid (Aruffo et al., 1990)
T1 sequence: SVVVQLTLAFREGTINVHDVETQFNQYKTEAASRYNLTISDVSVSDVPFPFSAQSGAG
Briefly: SPR (BIACORE 3000, 25 C), galectin-3(63-250) amine-coupled to a CM5 chip, hFc-MUC1-C/ED injected at 0-100 nM, 1:1 binding with drifting baseline; galectin-3(63-250), CRD fragment. Background: SPR reads the build-up and loss of mass on a sensor chip optically.

B1: galectin-3(63-250) (ligand)
chain: YHGAPGAYPGAPAPGVYPGPPSGPGAYPSSGQPSAPGAYPATGPYGAPAGPLIVPYNLPLPGGVVPRMLITILGTVKPNANRIALDFQRGNDVAFHFNPRFNENNRRVIVCNTKLDNNWGREERQSVFPFESGKPFKIQVLVEPDHFKVAVNDAHLLQYNHRVKKLNEISKLGISGDIDLTSASYTMI
notes: Fragment that contains the CRD, purified from E. coli and coupled to a CM5 chip
The molecule B1 displayed a Kd of 9.8 nM.

In general, Kd refers to the free concentration of one partner at which half of the binding sites on the other are occupied at equilibrium, for simple one-to-one binding. Read a high Kd as weaker binding.
